# Laboratory results published in patent US6528487B1, “Peptide inhibitors of inflammation mediated by selectins” (Centocor, Inc., priority 1991, dated 2003).
# No end group written: not given here. *: point of attachment. Fmoc = O=C(OCC1c2ccccc2-c2ccccc21)*
# Target: T1, GMP-140 (Homo sapiens, UniProt P16109)
# T1 construct: from tissue; host or cells: human platelets (outdated platelet packs from a blood bank)
# T1 sequence (P16109 42-830): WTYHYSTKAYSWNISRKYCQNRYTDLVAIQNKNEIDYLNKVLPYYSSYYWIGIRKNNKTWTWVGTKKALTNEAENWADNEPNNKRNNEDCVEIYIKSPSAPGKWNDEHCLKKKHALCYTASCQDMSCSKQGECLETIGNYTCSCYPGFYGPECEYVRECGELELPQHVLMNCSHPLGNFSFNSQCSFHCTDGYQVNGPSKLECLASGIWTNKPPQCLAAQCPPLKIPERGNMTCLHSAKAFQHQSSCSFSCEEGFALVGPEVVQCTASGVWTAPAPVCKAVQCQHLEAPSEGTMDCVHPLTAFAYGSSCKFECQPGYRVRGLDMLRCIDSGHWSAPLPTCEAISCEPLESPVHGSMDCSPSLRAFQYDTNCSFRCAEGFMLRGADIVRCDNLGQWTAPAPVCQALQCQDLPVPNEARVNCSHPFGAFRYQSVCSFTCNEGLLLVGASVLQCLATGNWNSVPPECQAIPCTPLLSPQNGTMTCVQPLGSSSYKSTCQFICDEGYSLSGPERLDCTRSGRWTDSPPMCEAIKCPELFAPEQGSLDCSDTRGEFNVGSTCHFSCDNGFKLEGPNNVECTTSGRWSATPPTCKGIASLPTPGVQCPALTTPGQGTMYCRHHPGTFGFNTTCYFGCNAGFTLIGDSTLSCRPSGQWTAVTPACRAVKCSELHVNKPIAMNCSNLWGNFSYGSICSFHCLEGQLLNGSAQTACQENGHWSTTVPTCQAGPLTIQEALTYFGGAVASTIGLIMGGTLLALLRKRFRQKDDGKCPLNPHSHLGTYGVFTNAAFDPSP
# Assay: Inhibition of neutrophil binding to GMP-140 coated wells
# Assay type: cell-based
# Conditions: human neutrophils, immobilized GMP-140; for inhibition at 100 µM / inhibition at 500 µM / inhibition at 1000 µM: read-out: Percent inhibition of neutrophil binding to GMP-140
# Source text: Peptides can be screened for their ability to inhibit adhesion to cells, for example, neutrophil adhesion to purified GMP-140 immobilized on plastic wells, using the assay described by Geng, et al., Nature 343, 757-760 (1990).
# Human neutrophils are isolated from heparinized whole blood by density gradient centrifugation on Mono-Poly resolving media, Flow laboratories. Neutrophil suspensions are greater than 98% pure and greater than 95% viable by trypan blue exclusion. For adhesion assays, neutrophils are suspended at a concentration of 2×10^6 cells/mL in Hanks' balanced salt solution containing 1.26 mM Ca^2+ and 0.81 mM Mg^2+ (HBSS, Gibco) with 5 mg/mL human serum albumin (HBSS/HSA). Adhesion assays are conducted in triplicate in 96-well microtiter plates, Corning, incubated at 4° C. overnight with 50 microliters of various protein solutions.
# GMP-140 is isolated from human platelet lysates by immunoaffinity chromatography on antibody S12-Sepharose™ and ion-exchange chromatography on a Mono-Q™ column (FLPC, Pharmacia Fine Chemicals, as follows.
# GMP-140 is plated at 5 micrograms/mL and the control proteins: human serum albumin (Alb), platelet glycoprotein Iib/IIIha (Iib), von Willebrand factor (vWF), fibrinogen (FIB), thrombomodulin™, gelatin (GEL) or human serum (HS), are added at 50 micrograms/mL. All wells are blocked for 2 h at 22° C. with 300 microliters HBSS containing 10 mg/mL HSA, then ashed three times with HBSS containing 0.1% Tween-20 and once with HBSS. Cells (2×10^5 per well are added to the wells and incubated at 22° C. for 20 min. The wells are then filled with HGSS/HSA, sealed with acetate tape (Dynatech), and centrifuged inverted at 150 g for 5 min. After discarding nonadherent cells and supemates, the contents of each well are solubilized with 200 microliters of 0.5% hexadecyltrimethylammonium bromide, Sigma, in 50 mM potassium phosphate, pH 6.0, and assayed for myeloperoxidase activity, Ley, et al., Blood 73, 1324-1330 (1989). The number of cells bound is derived from a standard curve of myeloperoxidase activity versus numbers of cells. Under all assay conditions, the cells release less than 5% of total myeloperoxidase and lactate dehydrogenase. Inhibition is read as a lower percent adhesion, so that a value of 5% means that 95% of the specific adhesion was inhibited.
# Binding of various peptides to GMP-140 coated wells, as described above, were compared.
# Binding of the peptides at various concentrations, ranging from 0.05 to 1 mM were compared.
# A 5 μg/mL solution of GMP-140 in HBSS (buffer) is prepared. 50 μL is pipetted per well with the exception of three wells (A10 to A12) and the plate is stored overnight at 0° C. to 4° C. The liquids are removed by aspiration and 300 μL of 5 mg/mL human serum albumin (HSA)/HBSS is placed in the wells coated with GMP-140 plus the three non-coated wells to be used as control wells. The plate is allowed to incubate at room temperature for two hours. The HSA/HBSS solution is removed and the wells washed three times with 300 μL/well of HBSS. The third 300 μL wash of HBSS is left in each well and the plate is kept at room temperature until it is used.
# Eight to ten mL of fresh human blood collected in heparinized tubes is carefully layered over 5 mL of the Mono-Poly Resolving Medium in 15 mL polypropylene centrifuge tubes. The tubes are centrifuged for 30 minutes at room temperature and 1400 to 1600 rpm. The tubes are rotated 180° and centrifuged for another 30 minutes under the same conditions. The top plasma layer and first cellular layer of leukocytes are drawn off. The second cellular layer of neutrophils is harvested (usually 2 to 3 mL per tube) and is placed in a clean 15 mL centrifuge tube. This is then underlayered with 1.5 mL of fresh resolving medium and spun at 2000 rpm for 15 minutes at room temperature. This is done to further purify the neutrophils from residual red blood cells. […]
Substance,Percent inhibition of neutrophil binding to GMP-140 (peptide concentration 0.1 mM) [%],inhibition at 100 µM (peptide concentration 0.1 mM) [%],Percent inhibition of neutrophil binding to GMP-140 (peptide concentration 0.5 mM) [%],inhibition at 500 µM (peptide concentration 0.5 mM) [%],Percent inhibition of neutrophil binding to GMP-140 (peptide concentration 1.0 mM) [%],inhibition at 1000 µM (peptide concentration 1.0 mM) [%]
"RKNNKTWTWV-NH2 [RKNNKTWTWV-NH2, Arginyl-lysyl-asparaginyl-asparaginyl-lysyl-threonyl-tryptophyl-threonyl-tryptophyl-valine-amide]",14,13,30,20,,
FMOC-Asn-Asn-Lys-Thr-Trp-NH2 (Fmoc-NNKTW-NH2; SMILES C[C@@H](O)[C@H](NC(=O)[C@H](CCCCN)NC(=O)[C@H](CC(N)=O)NC(=O)[C@H](CC(N)=O)NC(=O)OCC1c2ccccc2-c2ccccc21)C(=O)N[C@@H](Cc1c[nH]c2ccccc12)C(N)=O),85,,100,,99,
"RKVNNVWVWV [RKVNNVWVWV, Arginyl-lysyl-valyl-asparaginyl-asparaginyl-valyl-tryptophyl-valyl-tryptophyl-valine]",,82,,98,,
Tyr-Lys-Asn-Asn-Lys-Thr-Trp-Thr-Trp-Val-NH2 (YKNNKTWTWV-NH2),9,,98,,104,
"RKNNGTWTWV-NH2 [RKNNGTWTWV-NH2, Arginyl-lysyl-asparaginyl-asparaginyl-glycyl-threonyl-tryptophyl-threonyl-tryptophyl-valine-amide]",,46,,99,,99
KWKWNRTNVT-NH2 [reference compound],0,,0,,0,
Arg-Glu-Asn-Asn-Lys-Thr-Trp-Thr-Trp-Val-NH2 (RENNKTWTWV-NH2),34,,94,,96,
"RKVNNVWVWV-NH2 [RKVNNVWVWV-NH2, Arginyl-lysyl-valyl-asparaginyl-asparaginyl-valyl-tryptophyl-valyl-tryptophyl-valine-amide]",,94,,102,,
Ac-Arg-Lys-Asn-Asn-Lys-Thr-Trp-Thr-Trp-Val-NH2 (Ac-RKNNKTWTWV-NH2),35,,50,,,
RKNNKTWT-NH2,26,,23,,34,
RKNNKTWTWVGTKKALTNEC-NH2 [Arginyl-lysyl-asparaginyl-asparaginyl-lysyl-threonyl-tryptophyl-threonyl-tryptophyl-valyl-glycyl-threonyl-lysyl-lysyl-alanyl-leucyl-threonyl-asparaginyl-glutamyl-cysteine-amide],,9,,,,47
Arg-Lys-Asn-Asn-Lys-Thr-Trp-Thr-Trp-Glu-NH2 (RKNNKTWTWE-NH2),17,,20,,,
Arg-Lys-Asn-Asn-Lys-Thr-Trp-NH2 (RKNNKTW-NH2),31,,53,,99,
